Results on one molecule are retold here after paper PMC4716841, “Attenuation of AMPK signaling by ROQUIN promotes T follicular helper cell formation” (eLife, 2015).

For the experiment, the target named is T1, AMPKα1, endogenous (mouse), catalytic α1 subunit of adenosine monophosphate-activated protein kinase (mouse (endogenous in primary C57BL/6 …, UniProt Q5EG47 1-559)).
T1 construct: AMPK catalytic α1 subunit, encoded by Prkaa1, endogenous in mouse cells; In the cells it may stand with AMPK β and γ subunits; also called α1 subunit of AMPK; encoded by Prkaa1; source: endogenous, primary C57BL/6 MEFs (in situ); endogenous, EL4 cell lysate
In words: proximity ligation; in situ PLA on primary C57BL/6 MEFs, endogenous proteins; goat anti-AMPKα1 (C20) with rabbit anti-ROQUIN, overnight at 4°C; resting cells or 1 mM arsenite for 1 hr; control PLA GFP:AMPKα1. To be noted: partners not purified.

T1 sequence (Q5EG47 whole entry): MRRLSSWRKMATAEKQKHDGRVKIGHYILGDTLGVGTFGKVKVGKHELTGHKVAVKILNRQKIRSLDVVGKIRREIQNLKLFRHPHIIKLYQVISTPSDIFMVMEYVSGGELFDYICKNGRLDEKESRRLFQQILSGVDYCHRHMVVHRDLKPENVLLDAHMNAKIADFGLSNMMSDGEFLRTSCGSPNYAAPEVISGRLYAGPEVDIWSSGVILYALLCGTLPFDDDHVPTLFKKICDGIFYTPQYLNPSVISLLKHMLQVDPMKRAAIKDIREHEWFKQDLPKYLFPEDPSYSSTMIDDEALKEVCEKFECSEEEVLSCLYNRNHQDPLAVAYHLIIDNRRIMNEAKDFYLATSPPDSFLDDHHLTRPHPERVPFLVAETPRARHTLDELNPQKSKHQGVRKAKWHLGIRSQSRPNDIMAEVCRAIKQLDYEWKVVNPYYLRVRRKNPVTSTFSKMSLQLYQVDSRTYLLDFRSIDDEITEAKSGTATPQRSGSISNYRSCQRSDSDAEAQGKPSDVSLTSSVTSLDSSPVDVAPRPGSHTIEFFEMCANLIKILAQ

B1: ROQUIN, endogenous (mouse) (natural protein, UniProt Q4VGL6 1-1130, looked up)
chain: MPVQAPQWTDFLSCPICTQTFDETIRKPISLGCGHTVCKMCLNKLHRKACPFDQTTINTDIELLPVNSALLQLVGAQIPEQQPITLCSGVEDTKHYEEAKKCVEELALYLKPLSSARGVGLNSTTQSVLSRPMQRKLVTLVHCQLVEEEGRIRAMRAARSLGERTVTELILQHQNPQQLSSNLWAAVRARGCQFLGPAMQEEALKLVLLALEDGSALSRKVLVLFVVQRLEPRFPQASKTSIGHVVQLLYRASCFKVTKRDEDSSLMQLKEEFRTYEALRREHDSQIVQIAMEAGLRIAPDQWSSLLYGDQSHKSHMQSIIDKLQTPASFAQSVQELTIALQRTGDPANLNRLRPHLELLANIDPSPDAPPPTWEQLENGLVAVRTVVHGLVDYIQNHSKKGADQQQPPQHSKYKTYMCRDMKQRGGCPRGASCTFAHSQEELEKFRKMNKRLVPRRPLSASLGQLNEVGLPSAPILSDESAVDLSNRKPPALPNGIASSGSTVTQLIPRGTDPSFDSSLKPVKLDHLSSSAPGSPPDLLESAPKSISALPVNPHPVPPRGPTDLPPMPVTKPIQMVPRGSQLYPAQQADVYYQDPRGSAPAFETAPYQQGMYYTPPPCVSRFVRPPPSAPEPGPPYLDHYSPYLQDRVINSQYGTQPQQYPPMYPAHYDGRRVYPAQSYTREEMFRESPIPIDIPSAAVPSYVPESRERYQQVEGYYPVAPHPAQIRPSYPRDPPYSRLPPPQPHPSLDELHRRRKEIMAQLEERKVISPPPFAPSPTLPPAFHPEEFLDEDLKVAGKYKANDYSQYSPWSCDTIGSYIGTKDAKPKDVVAAGSVEMMNVESKGTREQRLDLQRRAVETSDDDLIPFGDRPTVSRFGAISRTSKTLYQGAGPLQAIAPQGAPTKSINISDYSAYGAHGGWGDSPYSPHANIPPQGHFIEREKMSMAEVASHGKPLLSAEREQLRLELQQLNHQISQQTQLRGLEAVSNRLVLQREVNTLASQPQPPQLPPKWPGMISSEQLSLELHQVEREIGKRTRELSMENQCSVDMKSKLGTSKQAENGQPEPQNKIRTEDLTLTFSDVPNGSALTQENLSLLSNKTSSLNLSEDSEGGGDNNDSQRSGVVSNSAP
notes: ROQUIN (ROQUIN1), encoded by Rc3h1, endogenous in mouse cells; also called ROQUIN1; encoded by Rc3h1; source: endogenous, primary C57BL/6 MEFs (in situ); endogenous, EL4 cell lysate
Turning to B1, the “fold PLA frequency over the ROQUIN:AGO2 PLA of earlier work” value was at least 15 fold.
